Assay results as given in US20160185875A1 (DCB USA, published 2016).

Biological target: T1, EGFR on EGFR-positive SW480 cells (human, UniProt P00533 25-1210)
T1 construct: whole, on cells; also called epidermal growth factor receptor
Assay: cell-based ELISA on EGFR-positive SW480 cells, around 2 hours after MMP2 treatment
Method: Briefly, EGFR-positive SW480 cells or HER2-positive SKBr3 cells were seed on a 96-well plate by 10⁵ cells/well using 200 μl of growth medium (DMEM+10% CCS+1% P/S), and incubated at 37° C. overnight.

B1: MMP2-treated IgG1 hinge/MMP2/panitumumab (antibody, V domains shown, not shown: small tags and cut ends)
VH: QVQLVQSGAEVKKPGASVKVSCKASGYTFTSYWMHWVRQAPGQGLEWMGNIYPGSGGTNYAEKFKNRVTMTRDTSISTAYMELSRLRSDDTAVYYCARSGGPYFFDYWGQGTLVTVSS
VL: DIVMTQSPLSLPVTPGEPASISCRSSQNIVHNNGITYLEWYLQKPGQSPQLLIYKVSDRFSGVPDRFSGSGSGTDFTLKISRVEAEDVGVYYCFQGSHIPPTFGQGTKVEIKR
notes: m14 around 2 hours after MMP2 treatment
In the case of B1, the “antigen binding capability (% of parent antibody)” value is reported as roughly 90%.
